According to patent publication US20190284293A1 (Bristol-Myers Squibb, published 2019):
Where a chain is given by its changes, count along the chain named. Names may count otherwise. “And” between values parts separate entries of the source, which are not always exact repeats. Identical values can stand only once.

T1: human CD73 on cells (human, UniProt P21589 27-549)
T1 sequence: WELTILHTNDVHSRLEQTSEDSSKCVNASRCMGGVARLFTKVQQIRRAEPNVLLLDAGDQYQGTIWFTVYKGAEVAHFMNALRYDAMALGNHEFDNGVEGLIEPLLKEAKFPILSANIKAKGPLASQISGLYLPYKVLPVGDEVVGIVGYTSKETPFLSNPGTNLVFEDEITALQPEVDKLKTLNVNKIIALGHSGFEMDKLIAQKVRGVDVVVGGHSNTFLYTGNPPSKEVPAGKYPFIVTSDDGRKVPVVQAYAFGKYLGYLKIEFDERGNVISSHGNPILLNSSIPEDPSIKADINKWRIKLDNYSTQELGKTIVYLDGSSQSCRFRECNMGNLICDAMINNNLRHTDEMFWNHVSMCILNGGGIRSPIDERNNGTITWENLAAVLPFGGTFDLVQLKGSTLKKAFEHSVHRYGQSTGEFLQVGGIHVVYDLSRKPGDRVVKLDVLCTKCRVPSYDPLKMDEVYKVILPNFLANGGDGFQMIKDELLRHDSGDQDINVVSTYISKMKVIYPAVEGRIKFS

T2: N-hCD73-his (N-terminal domain of human CD73, residues 26-336, His tag) (human, UniProt P21589 26-336)
T2 sequence: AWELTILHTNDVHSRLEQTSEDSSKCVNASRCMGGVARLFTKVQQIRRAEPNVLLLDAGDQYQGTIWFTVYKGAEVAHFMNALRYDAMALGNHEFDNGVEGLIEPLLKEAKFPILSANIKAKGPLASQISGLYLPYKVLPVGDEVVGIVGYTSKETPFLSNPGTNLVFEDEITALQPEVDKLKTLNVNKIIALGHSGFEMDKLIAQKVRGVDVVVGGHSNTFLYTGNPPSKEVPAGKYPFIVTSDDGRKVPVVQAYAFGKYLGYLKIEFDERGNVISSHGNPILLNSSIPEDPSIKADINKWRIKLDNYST

T3: cynomolgus CD73 on transfected CHO cells (cynomolgus, UniProt P21589 27-549 (human entry))
T3 construct: also called CHO-cynoCD73; CHO-Cynomolgus CD73 transfectants
T3 chain: T1 sequence with M199T, T350A, V466I

T4: cyno CD73, Sino Biological Inc Cat#90192-C08H, bound to his-tag magnet beads (cynomolgus, UniProt P21589 27-547 (human entry))
T4 chain: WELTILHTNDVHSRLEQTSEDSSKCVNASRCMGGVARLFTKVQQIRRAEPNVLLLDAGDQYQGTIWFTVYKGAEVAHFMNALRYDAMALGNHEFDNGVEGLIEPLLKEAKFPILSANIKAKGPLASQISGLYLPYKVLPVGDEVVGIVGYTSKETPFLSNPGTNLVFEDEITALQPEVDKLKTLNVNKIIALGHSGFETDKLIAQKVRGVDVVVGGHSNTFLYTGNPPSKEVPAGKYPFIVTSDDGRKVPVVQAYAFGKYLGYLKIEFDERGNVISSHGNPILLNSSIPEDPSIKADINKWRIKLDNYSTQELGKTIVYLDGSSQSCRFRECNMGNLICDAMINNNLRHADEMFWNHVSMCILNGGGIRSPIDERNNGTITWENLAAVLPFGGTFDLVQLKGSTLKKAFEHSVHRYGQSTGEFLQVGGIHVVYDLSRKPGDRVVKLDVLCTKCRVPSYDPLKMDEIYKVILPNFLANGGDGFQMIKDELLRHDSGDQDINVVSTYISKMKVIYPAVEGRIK

B1: CD73.10-IgG2-C219S-IgG1.1f (antibody)
heavy: QVQLVESGGGVVQPGRSLRLSCAASGFTFSNYGMHWVRQAPGKGLEWVAVIWYDESNKYYPDSVKGRFTISRDNSKNTLYLQMNSLRAEDTAVYYCARGGSSWYPDSFDIWGQGTMVTVSSASTKGPSVFPLAPCSRSTSESTAALGCLVKDYFPEPVTVSWNSGALTSGVHTFPAVLQSSGLYSLSSVVTVPSSNFGTQTYTCNVDHKPSNTKVDKTVERKSCVECPPCPAPPVAGPSVFLFPPKPKDTLMISRTPEVTCVVVDVSHEDPEVKFNWYVDGVEVHNAKTKPREEQYNSTYRVVSVLTVLHQDWLNGKEYKCKVSNKALPSSIEKTISKAKGQPREPQVYTLPPSREEMTKNQVSLTCLVKGFYPSDIAVEWESNGQPENNYKTTPPVLDSDGSFFLYSKLTVDKSRWQQGNVFSCSVMHEALHNHYTQKSLSLSPG
light: not shown
notes: also called CD73.10-IgG2CS-IgG1.1f; CD73.10-IgG2S-IgG1.1f
B2: CD73.10-IgG2-C219S (antibody)
heavy: B1 heavy with K274Q, Y296F, Y300F, L309V, A327G, S330A, S331P, A339T, V397M
light: not shown
notes: also called CD73.10-IgG2CS; CD73.10-IgG2S

Legend:
[1] = target: T1, human CD73 on cells; experiment: cell-based or functional assay
[2] = target: T2, N-hCD73-his (N-terminal domain of human …); experiment: SPR, mAb captured on protein A
[3] = target: T3, cynomolgus CD73 on transfected CHO cells; experiment: flow cytometry, CHO-cynoCD73 cells
Protocol: Titration binding curves were produced with CD73 antibodies on Calu6 (CD73 endogenous expressors; human pulmonary adenocarcinoma cell line), DMS114 (CD73 negative; human small cell lung cancer cell line), CHO-cynoCD73 (cynoCD73-transfected) and CHO-K1 (cynoCD73 negative), cells using Alexa Fluor® 647 Goat Anti-Human IgG (H+L) as a secondary antibody, Invitrogen Cat#A-21445, using the following method: 100000 cells were plated in 100 uL PBS+2% FBS per well and blocked for 20 min. Using a U-bottom 96-deep well plate, volumes of antibody and PBS+2% FBS were combined as dictated by Table 12 below.
An 8-point serial dilution was performed by diluting a sixth of the volume (90 uL) into […], PBS+2% FBS. The cell plate was spun down for 5 minutes at 1500 rpm. 100 uL of diluted antibody was added per well of the plate. 100 uL PBS+2% FBS were added to all other wells. […] The plates were spun down at 1500 rpm for 5 min and washed in 200 uL PBS+2% FBS per well. The plates were washed again, resuspended in 200 uL 2% FBS in PBS per well and the samples were run.

[4] = target: T4, cyno CD73, Sino Biological Inc …; experiment: cell-based or functional assay

Binder	EC50 Calu6 inhibition [1] [nM]	Kd [2]	koff [2]	kon [2]	EC50 [3] [nM]	EC50 (nM), enzymatic inhibition of cyno CD73 (bead-bound) [4] [nM]
B1	0.77	5.7 nM and 6.8 nM	0.0016 s⁻¹ and 0.0014 s⁻¹	230000 M⁻¹ s⁻¹ and 240000 M⁻¹ s⁻¹	1.27	9.94
B2	0.84	6.2 nM and 8.3 nM	0.0014 s⁻¹ and 0.0018 s⁻¹	220000 M⁻¹ s⁻¹	1.24	8.78
